Laboratory results taken from patent US20170088600A1.
Several values for one entry are separate records, joined by “and”; a condition that tells them apart may be missing. Identical values can stand only once.

Key:
[1] = molecular target: CD155-Fc (CD155 / poliovirus receptor Fc fusion) (UniProt P15151); assay: SPR, KDave
[2] = molecular target: TRAIL-R2-Fc (human TRAIL-R2 aa 58-184, thrombin site, human IgG1 Fc), wild type (human) (UniProt O14763); assay: SPR, KDave
[3] = molecular target: TRAIL-R1-Fc (human TRAIL-R1 ectodomain Fc fusion) (human) (UniProt O00220); assay: SPR, average of KDeq and kinetic KD (KDave)
Chain of TRAIL-R1-Fc (human TRAIL-R1 ectodomain Fc fusion) (human) (O00220 24-239): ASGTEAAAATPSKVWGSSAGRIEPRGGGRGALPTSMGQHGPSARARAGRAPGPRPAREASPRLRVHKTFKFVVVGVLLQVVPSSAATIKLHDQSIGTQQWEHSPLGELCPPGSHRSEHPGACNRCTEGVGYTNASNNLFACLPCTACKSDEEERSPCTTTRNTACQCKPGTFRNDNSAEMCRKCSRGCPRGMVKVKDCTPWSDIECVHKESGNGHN

[4] = molecular target: TRAIL-R2-Fc (human TRAIL-R2 aa 58-184, thrombin site, human IgG1 Fc), wild type (human) (UniProt O14763); assay: SPR, WT TRAIL-R2-Fc captured, UL141 as analyte
[5] = molecular target: TRAIL-R2-Fc D148A (human) (UniProt O14763); assay: SPR, mutant TRAIL-R2-Fc captured, UL141 as analyte
Chain of TRAIL-R2-Fc D148A (human) (O14763 other isoform, or with tags, fused parts or gaps D148A D148A limits assumed): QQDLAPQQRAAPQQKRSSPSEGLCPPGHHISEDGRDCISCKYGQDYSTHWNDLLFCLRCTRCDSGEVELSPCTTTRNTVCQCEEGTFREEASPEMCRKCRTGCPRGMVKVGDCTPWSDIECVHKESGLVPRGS

[6] = molecular target: TRAIL-R2-Fc E78A/D109A (human) (UniProt O14763); assay: SPR, mutant TRAIL-R2-Fc captured, UL141 as analyte
Chain of TRAIL-R2-Fc E78A/D109A (human) (O14763 other isoform, or with tags, fused parts or gaps E78A D109A E78A D109A limits assumed): as the sequence (O14763 other isoform, or with tags, fused parts or gaps D148A D148A limits assumed) above, with E21A, D52A, A91D counted along it

[7] = molecular target: TRAIL-R2-Fc F112A (human) (UniProt O14763); assay: SPR, mutant TRAIL-R2-Fc captured, UL141 as analyte
Chain of TRAIL-R2-Fc F112A (human) (O14763 other isoform, or with tags, fused parts or gaps F112A F112A limits assumed): as the sequence (O14763 other isoform, or with tags, fused parts or gaps D148A D148A limits assumed) above, with F55A, A91D counted along it

[8] = molecular target: TRAIL-R2-Fc K155A (human) (UniProt O14763); assay: SPR, mutant TRAIL-R2-Fc captured, UL141 as analyte
Chain of TRAIL-R2-Fc K155A (human) (O14763 other isoform, or with tags, fused parts or gaps K155A K155A limits assumed): as the sequence (O14763 other isoform, or with tags, fused parts or gaps D148A D148A limits assumed) above, with A91D, K98A counted along it

[9] = molecular target: TRAIL-R2-Fc L110A/L114A (human) (UniProt O14763); assay: SPR, mutant TRAIL-R2-Fc captured, UL141 as analyte
Chain of TRAIL-R2-Fc L110A/L114A (human) (O14763 other isoform, or with tags, fused parts or gaps L110A L114A L110A L114A limits assumed): as the sequence (O14763 other isoform, or with tags, fused parts or gaps D148A D148A limits assumed) above, with L53A, L57A, A91D counted along it

[10] = molecular target: TRAIL-R2-Fc M152A (human) (UniProt O14763); assay: SPR, mutant TRAIL-R2-Fc captured, UL141 as analyte
Chain of TRAIL-R2-Fc M152A (human) (O14763 other isoform, or with tags, fused parts or gaps M152A M152A limits assumed): as the sequence (O14763 other isoform, or with tags, fused parts or gaps D148A D148A limits assumed) above, with A91D, M95A counted along it

[11] = molecular target: TRAIL-R2-Fc M152A/R154A/K155A (human) (UniProt O14763); assay: SPR, mutant TRAIL-R2-Fc captured, UL141 as analyte
Chain of TRAIL-R2-Fc M152A/R154A/K155A (human) (O14763 other isoform, or with tags, fused parts or gaps M152A R154A K155A M152A R154A K155A limits assumed): as the sequence (O14763 other isoform, or with tags, fused parts or gaps D148A D148A limits assumed) above, with A91D, M95A, R97A, K98A counted along it

[12] = molecular target: TRAIL-R2-Fc P150A (human) (UniProt O14763); assay: SPR, mutant TRAIL-R2-Fc captured, UL141 as analyte
Chain of TRAIL-R2-Fc P150A (human) (O14763 other isoform, or with tags, fused parts or gaps P150A P150A limits assumed): as the sequence (O14763 other isoform, or with tags, fused parts or gaps D148A D148A limits assumed) above, with A91D, P93A counted along it

[13] = molecular target: TRAIL-R2-Fc R154A (human) (UniProt O14763); assay: SPR, mutant TRAIL-R2-Fc captured, UL141 as analyte
Chain of TRAIL-R2-Fc R154A (human) (O14763 other isoform, or with tags, fused parts or gaps R154A R154A limits assumed): as the sequence (O14763 other isoform, or with tags, fused parts or gaps D148A D148A limits assumed) above, with A91D, R97A counted along it

[14] = molecular target: TRAIL-R2-Fc V167A (human) (UniProt O14763); assay: SPR, mutant TRAIL-R2-Fc captured, UL141 as analyte
Chain of TRAIL-R2-Fc V167A (human) (O14763 other isoform, or with tags, fused parts or gaps V167A V167A limits assumed): as the sequence (O14763 other isoform, or with tags, fused parts or gaps D148A D148A limits assumed) above, with A91D, V110A counted along it

[15] = molecular target: CD155-Fc (CD155 / poliovirus receptor Fc fusion) (UniProt P15151); assay: SPR kinetic fit, 1:1 Langmuir; CD155-Fc captured, UL141 analyte
[16] = molecular target: TRAIL-R1-Fc (human TRAIL-R1 ectodomain Fc fusion) (human) (UniProt O00220); assay: SPR kinetic fit, 1:1 Langmuir; TRAIL-R1-Fc captured, UL141 analyte
[17] = molecular target: TRAIL-R2-Fc (human TRAIL-R2 aa 58-184, thrombin site, human IgG1 Fc), wild type (human) (UniProt O14763); assay: SPR kinetic fit, 1:1 Langmuir; TRAIL-R2-Fc captured, UL141 analyte
[18] = molecular target: TRAIL-R1-Fc (human TRAIL-R1 ectodomain Fc fusion) (human) (UniProt O00220); assay: SPR, steady-state analysis (KDeq); TRAIL-R1-Fc captured, UL141 analyte

Chain of CD155-Fc (CD155 / poliovirus receptor Fc fusion) (P15151 21-343): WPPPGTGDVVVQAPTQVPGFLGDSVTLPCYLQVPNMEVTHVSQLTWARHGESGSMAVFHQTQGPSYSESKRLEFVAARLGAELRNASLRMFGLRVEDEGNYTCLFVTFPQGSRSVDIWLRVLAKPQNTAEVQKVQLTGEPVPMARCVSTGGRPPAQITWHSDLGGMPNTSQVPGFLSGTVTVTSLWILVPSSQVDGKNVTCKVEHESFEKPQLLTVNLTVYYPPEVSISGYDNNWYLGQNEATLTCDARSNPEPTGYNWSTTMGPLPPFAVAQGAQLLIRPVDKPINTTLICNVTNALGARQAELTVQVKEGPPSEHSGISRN
Chain of TRAIL-R2-Fc (human TRAIL-R2 aa 58-184, thrombin site, human IgG1 Fc), wild type (human) (O14763 other isoform, or with tags, fused parts or gaps limits assumed): as the sequence (O14763 other isoform, or with tags, fused parts or gaps D148A D148A limits assumed) above, with A91D counted along it
Chain of UL141 ectodomain of human cytomegalovirus (HCMV FIX strain), C-terminal poly-histidine tag (ligand) (Q6RJQ3 30-279, tags left off): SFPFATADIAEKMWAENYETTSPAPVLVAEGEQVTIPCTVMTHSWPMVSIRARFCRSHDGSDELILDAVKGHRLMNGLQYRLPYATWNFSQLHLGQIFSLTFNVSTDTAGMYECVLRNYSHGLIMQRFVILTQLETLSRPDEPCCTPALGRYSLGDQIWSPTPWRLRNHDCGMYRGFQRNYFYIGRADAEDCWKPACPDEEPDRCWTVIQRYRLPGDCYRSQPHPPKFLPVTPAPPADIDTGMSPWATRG

UL141 ectodomain of human cytomegalovirus (HCMV FIX strain), C-terminal poly-histidine tag (ligand)
Kd [1]: 2 nM | Kd [2]: 6 nM | Kd [3]: 2300 nM | Kd [4]: 6 nM and 5.95 nM | koff [4]: 7.21e-05 s⁻¹ | kon [4]: 12100 M⁻¹ s⁻¹ | Kd [5]: 55.3 nM | fold lower binding than wild type [5]: 10 fold | koff [5]: 0.0013 s⁻¹ | kon [5]: 23500 M⁻¹ s⁻¹ | Kd [6]: 60.4 nM | fold lower binding than wild type [6]: 10 fold | koff [6]: 0.00151 s⁻¹ | kon [6]: 25000 M⁻¹ s⁻¹ | Kd [7]: 630 nM | fold lower binding than wild type [7]: 100 fold | koff [7]: 0.00566 s⁻¹ | kon [7]: 8980 M⁻¹ s⁻¹ | Kd [8]: 7.74 nM | koff [8]: 0.00038 s⁻¹ | kon [8]: 49100 M⁻¹ s⁻¹ | Kd [9]: 42.7 nM | fold decrease in binding affinity versus wild type [9]: 7 fold | fold lower binding than wild type [9]: 10 fold | koff [9]: 0.00064 s⁻¹ | kon [9]: 15000 M⁻¹ s⁻¹ | Kd [10]: 7.49 nM | koff [10]: 0.000382 s⁻¹ | kon [10]: 51000 M⁻¹ s⁻¹ | Kd [11]: 7.39 nM | koff [11]: 0.00027 s⁻¹ | kon [11]: 36500 M⁻¹ s⁻¹ | Kd [12]: 8.32 nM | koff [12]: 0.000391 s⁻¹ | kon [12]: 47000 M⁻¹ s⁻¹ | Kd [13]: 6.26 nM | koff [13]: 0.000243 s⁻¹ | kon [13]: 38800 M⁻¹ s⁻¹ | Kd [14]: 15.5 nM | fold lower binding than wild type [14]: 2.5 fold | koff [14]: 0.00048 s⁻¹ | kon [14]: 31000 M⁻¹ s⁻¹ | Kd [15]: 1.97 nM | koff [15]: 0.000346 s⁻¹ | kon [15]: 176000 M⁻¹ s⁻¹ | Kd [16]: 2330 nM | koff [16]: 0.014 s⁻¹ | kon [16]: 6020 M⁻¹ s⁻¹ | Kd [17]: 5.96 nM | koff [17]: 7.21e-05 s⁻¹ | kon [17]: 12100 M⁻¹ s⁻¹ | Kd [18]: 2.27 nM
